{
  "source": "paper PMC4826271",
  "about": "“New Structural Insights into the Genome and Minor Capsid Proteins of BK Polyomavirus using Cryo-Electron Microscopy” (Structure(London, England:1993), 2016)",
  "molecules": {"B1": {"name": "BK polyomavirus minor capsid protein VP3 (natural protein)", "chain": "MALELFNPDEYYDILFPGVNTFVNNIQYLDPRHWGPSLFATISQALWHVIRDDIPSITSQELQRRTERFFRDSLARFLEETTWTIVNAPINFYNYIQQYYSDLSPIRPSMVRQVAEREGTRVHFGHTYSIDDADSIEEVTQRMDLRNQQSVHSGEFIEKTIAPGGANQRTAPQWMLPLLLGLYGTVTPALEAYEDGPNQKKRRVSRGSSQKAKGTRASAKTTNKRRSRSSRS", "notes": "Minor capsid protein VP3 of BK polyomavirus, Dunlop strain; printed mass 26.7 kDa; expressed from the same open reading frame as VP2 but without VP2's extended N terminus; also called VP2/3; VP2/VP3; source: Vero cells transfected/infected with the BK Dunlop genome; in purified virions (CsCl gradient, 1-MDa centrifugal concentrator)"}, "B2": {"name": "BK polyomavirus major capsid protein VP1 (native infectious virion, Dunlop strain) (natural protein)", "chain": "MAPTKRKGECPGAAPKKPKEPVQVPKLLIKGGVEVLEVKTGVDAITEVECFLNPEMGDPDENLRGFSLKLSAENDFSSDSPERKMLPCYSTARIPLPNLNEDLTCGNLLMWEAVTVQTEVIGITSMLNLHAGSQKVHEHGGGKPIQGSNFHFFAVGGEPLEMQGVLMNYRSKYPDGTITPKNPTAQSQVMNTDHKAYLDKNNAYPVECWVPDPSRNENARYFGTFTGGENVPPVLHVTNTATTVLLDEQGVGPLCKADSLYVSAADICGLFTNSSGTQQWRGLARYFKIRLRKRSVKNPYPISFLLSDLINRRTQRVDGQPMYGMESQVEEVRVFDGTERLPGDPDMIRYIDKQGQLQTKML", "notes": "Major capsid protein VP1 of BK polyomavirus, Dunlop strain, as assembled in the native virion; Five copies form one penton; 72 pentons form the T = 7d capsid, with VP1 in six quasi-equivalent conformations; PDB 5FUA is a homology model of BK VP1 (built on SV40, PDB 1SVA) fitted into the virion map; also called BK VP1; BKPyV VP1; source: Vero cells transfected/infected with the BK Dunlop genome; …"}, "B3": {"name": "BK polyomavirus minor capsid protein VP2 (natural protein)", "chain": "MGAALALLGDLVASVSEAAAATGFSVAEIAAGEAAAAIEVQIASLATVEGITSTSEAIAAIGLTPQTYAVIAGAPGAIAGFAALIQTVSGISSLAQVGYRFFSDWDHKVSTVGLYQQSGMALELFNPDEYYDILFPGVNTFVNNIQYLDPRHWGPSLFATISQALWHVIRDDIPSITSQELQRRTERFFRDSLARFLEETTWTIVNAPINFYNYIQQYYSDLSPIRPSMVRQVAEREGTRVHFGHTYSIDDADSIEEVTQRMDLRNQQSVHSGEFIEKTIAPGGANQRTAPQWMLPLLLGLYGTVTPALEAYEDGPNQKKRRVSRGSSQKAKGTRASAKTTNKRRSRSSRS", "notes": "Minor capsid protein VP2 of BK polyomavirus, Dunlop strain; printed mass 38.3 kDa; same open reading frame as VP3, with an extended N terminus; The introduction says the extended N terminus of VP2 holds a site for myristoylation; also called VP2/3; VP2/VP3; source: Vero cells transfected/infected with the BK Dunlop genome; in purified virions (CsCl gradient, 1-MDa centrifugal concentrator)"}},
  "key": {"[1]": {"molecular_target": "BK polyomavirus major capsid protein VP1 (VP1-only virus-like particle) (BK polyomavirus) (UniProt P03088)", "assay": "cryo-EM structure; purified VP1-only VLPs in buffer A supplemented with 50 mM CaCl2, vitrified; FEI Polara, K2 summit in super-resolution mode; icosahedral single-particle reconstruction in RELION, 9.1 Å"}, "[2]": {"molecular_target": "B2", "assay": "cryo-EM structure; purified native BK virions in buffer A (10 mM HEPES pH 7.9, 1 mM CaCl2, 1 mM MgCl2, 5 mM KCl), vitrified; FEI Tecnai-F20, 200 kV, K2-Summit; icosahedral single-particle reconstruction in RELION, 7.6 Å", "conditions": "both partners purified"}, "[3]": {"molecular_target": "the molecule itself", "assay": "cryo-EM structure; purified native BK virions in buffer A (10 mM HEPES pH 7.9, 1 mM CaCl2, 1 mM MgCl2, 5 mM KCl), vitrified; FEI Tecnai-F20, 200 kV, K2-Summit; icosahedral single-particle reconstruction in RELION, 7.6 Å"}},
  "data": [
    {"molecule": "BK polyomavirus major capsid protein VP1 (VP1-only virus-like particle) (from UniProt P03088 1-362) (natural protein)", "values": [
      {"measurement": "stoichiometry N", "setting": "[1]", "value": 5}
    ]},
    {"molecule": "B1", "values": [
      {"measurement": "binding result", "setting": "[2]", "value": "binds"}
    ]},
    {"molecule": "B2", "values": [
      {"measurement": "stoichiometry N", "setting": "[3]", "value": 5}
    ]},
    {"molecule": "B3", "values": [
      {"measurement": "binding result", "setting": "[2]", "value": "binds"}
    ]}
  ]
}
